Test results published in patent publication US20140087995A1 (published 2014).
Numbered stars: 1 amine (or outer) side, 2 acyl side, 3 side chain; on linkers, the order of the positions; unused ones are H or OH. Bridge positions count the residues as written; N and C are the ends. * marks the point of attachment. C20 diacid = O=C(O)CCCCCCCCCCCCCCCCCCC(=O)*; γGlu = O=C(O)[C@H](CCC(=O)[*:2])N[*:1]

T1: human calcitonin receptor (human, UniProt P30988 25-474)
T1 construct: whole, on cells; Assay used cell membranes of the transfected BHK cells; also called hCTR; hCT
T1 sequence (looked up): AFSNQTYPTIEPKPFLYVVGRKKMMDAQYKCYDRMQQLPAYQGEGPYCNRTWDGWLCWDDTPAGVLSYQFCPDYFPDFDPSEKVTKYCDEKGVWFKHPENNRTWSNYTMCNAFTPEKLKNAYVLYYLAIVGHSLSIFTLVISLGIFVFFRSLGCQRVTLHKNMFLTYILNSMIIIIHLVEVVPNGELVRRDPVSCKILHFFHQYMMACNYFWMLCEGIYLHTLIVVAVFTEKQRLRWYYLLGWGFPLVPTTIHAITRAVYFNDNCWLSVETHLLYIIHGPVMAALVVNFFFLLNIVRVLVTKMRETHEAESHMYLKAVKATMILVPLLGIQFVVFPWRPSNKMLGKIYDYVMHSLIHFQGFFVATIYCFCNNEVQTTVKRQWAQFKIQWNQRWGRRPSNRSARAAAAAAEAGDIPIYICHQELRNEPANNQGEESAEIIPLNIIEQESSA


What was measured:
[1] = molecular target: T1, human calcitonin receptor; experiment: ratio IC50 hCTR / IC50 hAmylin-R of the two SPA competition assays; reference: human amylin receptor
Description: The resulting pellet was resuspended, homogenized and centrifuged (20.000 rpm, 15 min) in a buffer containing 20 mM Na-HEPES and 0.1 mM EDTA (pH 7.4, buffer 2). The resulting pellet was resuspended in buffer 2 and protein concentration was measured (BCA protein Assay, Pierce). The homogenate was kept cold during the whole procedure. The membranes were kept at −80° C. until use. The assay was performed in a 384 well Optiplate (PerkinElmer) in a total volume of 40 ul. Membranes were mixed with SPA beads. Final concentration of membranes 35 ng/μL final and SPA beads was 0.05 mg/well. Test-compounds were dissolved in DMSO and further diluted in assay buffer (50 mM Hepes, pH 7.4, 1 mM CaCl2, 5 mM MgCl₂, 0.1% OA and 0.02% Tween20). […] The final mixture was incubated with shaking at 400 rpm for 120 min at 25° C. prior to centrifugation (1500 rpm, 10 min). Samples were analyzed on TopCounter™ (Packard). The IC₅₀ was calculated using (one site binding competition analysis) GraphPad Prism5 as a measure of receptor affinity.
Membranes were prepared in the following way; the cells were rinsed with PBS and incubated with Versene for approximately 5 min before harvesting. The cells were flushed with PBS and the cell-suspension was centrifuged for 5 min at 1000 rpm. Cells were homogenized (Ultrathurrax) in a buffer containing 20 mM Na-HEPES and 10 mM EDTA (pH 7.4) and centrifuged at 20.000 rpm for 15 min. The resulting pellet was resuspended, homogenized and centrifuged (20.000 rpm, 15 min) in a buffer containing 20 mM Na-HEPES and 0.1 mM EDTA (pH 7.4, buffer 2). The resulting pellet was resuspended in buffer 2 and protein concentration was measured (BCA protein Assay, Pierce). The homogenate was kept cold during the whole procedure. The membranes were kept at −80° C. until use. Assay was performed in a 384 well Optiplate (PerkinElmer) in a total volume of 40 ul. Membranes were mixed with SPA beads.

[2] = molecular target: T1, human calcitonin receptor; experiment: SPA radioligand competition (125I-calcitonin), membranes of BHK cells with human calcitonin receptor
Method in brief: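 BHK hCTR membranes 35 ng/μL + SPA beads 0.05 mg/well; buffer 50 mM Hepes pH 7.4, 1 mM CaCl2, 5 mM MgCl₂, 0.1% OA, 0.02% Tween20. 120 min, 25° C., shaking. Scintillation count; IC50 by one-site binding competition.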

Ratio hCT/hAmylin binding [1] | IC50 [2] [nM] | Binder
13.9 | 8.01 | {C20 diacid-γGlu}-KCNTATCATQRLANFLRHSSPNFGAIPSSTNVGPETY-NH2 (disulfide 2-7; SMILES CC[C@H](C)[C@H](NC(=O)[C@H](C)NC(=O)CNC(=O)[C@H](Cc1ccccc1)NC(=O)[C@H](CC(N)=O)NC(=O)[C@@H]1CCCN1C(=O)[C@H](CO)NC(=O)[C@H](CO)NC(=O)[C@H](Cc1c[nH]cn1)NC(=O)[C@H](CCCNC(=N)N)NC(=O)[C@H](CC(C)C)NC(=O)[C@H](Cc1ccccc1)NC(=O)[C@H](CC(N)=O)NC(=O)[C@H](C)NC(=O)[C@H](CC(C)C)NC(=O)[C@H](CCCNC(=N)N)NC(=O)[C@H](CCC(N)=O)NC(=O)[C@@H](NC(=O)[C@H](C)NC(=O)[C@@H]1CSSC[C@H](NC(=O)[C@H](CCCCN)NC(=O)CC[C@H](NC(=O)CCCCCCCCCCCCCCCCCCC(=O)O)C(=O)O)C(=O)N[C@@H](CC(N)=O)C(=O)N[C@@H]([C@@H](C)O)C(=O)N[C@@H](C)C(=O)N[C@@H]([C@@H](C)O)C(=O)N1)[C@@H](C)O)C(=O)N1CCC[C@H]1C(=O)N[C@@H](CO)C(=O)N[C@@H](CO)C(=O)N[C@H](C(=O)N[C@@H](CC(N)=O)C(=O)N[C@H](C(=O)NCC(=O)N1CCC[C@H]1C(=O)N[C@@H](CCC(=O)O)C(=O)N[C@H](C(=O)N[C@@H](Cc1ccc(O)cc1)C(N)=O)[C@@H](C)O)C(C)C)[C@@H](C)O, Synthetic analogue; also called compound 29)
12.5 | 10.9 | {C20 diacid-γGlu}-KCNTATCATQRLAEFLRHSSPNFGAIPSSTNVGHNTY-NH2 (disulfide 2-7; SMILES CC[C@H](C)[C@H](NC(=O)[C@H](C)NC(=O)CNC(=O)[C@H](Cc1ccccc1)NC(=O)[C@H](CC(N)=O)NC(=O)[C@@H]1CCCN1C(=O)[C@H](CO)NC(=O)[C@H](CO)NC(=O)[C@H](Cc1c[nH]cn1)NC(=O)[C@H](CCCNC(=N)N)NC(=O)[C@H](CC(C)C)NC(=O)[C@H](Cc1ccccc1)NC(=O)[C@H](CCC(=O)O)NC(=O)[C@H](C)NC(=O)[C@H](CC(C)C)NC(=O)[C@H](CCCNC(=N)N)NC(=O)[C@H](CCC(N)=O)NC(=O)[C@@H](NC(=O)[C@H](C)NC(=O)[C@@H]1CSSC[C@H](NC(=O)[C@H](CCCCN)NC(=O)CC[C@H](NC(=O)CCCCCCCCCCCCCCCCCCC(=O)O)C(=O)O)C(=O)N[C@@H](CC(N)=O)C(=O)N[C@@H]([C@@H](C)O)C(=O)N[C@@H](C)C(=O)N[C@@H]([C@@H](C)O)C(=O)N1)[C@@H](C)O)C(=O)N1CCC[C@H]1C(=O)N[C@@H](CO)C(=O)N[C@@H](CO)C(=O)N[C@H](C(=O)N[C@@H](CC(N)=O)C(=O)N[C@H](C(=O)NCC(=O)N[C@@H](Cc1c[nH]cn1)C(=O)N[C@@H](CC(N)=O)C(=O)N[C@H](C(=O)N[C@@H](Cc1ccc(O)cc1)C(N)=O)[C@@H](C)O)C(C)C)[C@@H](C)O, Synthetic analogue; also called compound 17)
16 | 3.26 | {C20 diacid-γGlu}-KCNTATCATQRLAEFLRHSSPNFGAIPSSTPVGSNTY-NH2 (disulfide 2-7; SMILES CC[C@H](C)[C@H](NC(=O)[C@H](C)NC(=O)CNC(=O)[C@H](Cc1ccccc1)NC(=O)[C@H](CC(N)=O)NC(=O)[C@@H]1CCCN1C(=O)[C@H](CO)NC(=O)[C@H](CO)NC(=O)[C@H](Cc1c[nH]cn1)NC(=O)[C@H](CCCNC(=N)N)NC(=O)[C@H](CC(C)C)NC(=O)[C@H](Cc1ccccc1)NC(=O)[C@H](CCC(=O)O)NC(=O)[C@H](C)NC(=O)[C@H](CC(C)C)NC(=O)[C@H](CCCNC(=N)N)NC(=O)[C@H](CCC(N)=O)NC(=O)[C@@H](NC(=O)[C@H](C)NC(=O)[C@@H]1CSSC[C@H](NC(=O)[C@H](CCCCN)NC(=O)CC[C@H](NC(=O)CCCCCCCCCCCCCCCCCCC(=O)O)C(=O)O)C(=O)N[C@@H](CC(N)=O)C(=O)N[C@@H]([C@@H](C)O)C(=O)N[C@@H](C)C(=O)N[C@@H]([C@@H](C)O)C(=O)N1)[C@@H](C)O)C(=O)N1CCC[C@H]1C(=O)N[C@@H](CO)C(=O)N[C@@H](CO)C(=O)N[C@H](C(=O)N1CCC[C@H]1C(=O)N[C@H](C(=O)NCC(=O)N[C@@H](CO)C(=O)N[C@@H](CC(N)=O)C(=O)N[C@H](C(=O)N[C@@H](Cc1ccc(O)cc1)C(N)=O)[C@@H](C)O)C(C)C)[C@@H](C)O, Synthetic analogue; also called compound 31)
16.5 | 11.1 | {C20 diacid-γGlu}-KCNTATCATQRLAEFLRHSSPNFGAPLSSTNVGSNTY-NH2 (disulfide 2-7; SMILES CC(C)C[C@H](NC(=O)[C@H](CCCNC(=N)N)NC(=O)[C@H](CCC(N)=O)NC(=O)[C@@H](NC(=O)[C@H](C)NC(=O)[C@@H]1CSSC[C@H](NC(=O)[C@H](CCCCN)NC(=O)CC[C@H](NC(=O)CCCCCCCCCCCCCCCCCCC(=O)O)C(=O)O)C(=O)N[C@@H](CC(N)=O)C(=O)N[C@@H]([C@@H](C)O)C(=O)N[C@@H](C)C(=O)N[C@@H]([C@@H](C)O)C(=O)N1)[C@@H](C)O)C(=O)N[C@@H](C)C(=O)N[C@@H](CCC(=O)O)C(=O)N[C@@H](Cc1ccccc1)C(=O)N[C@@H](CC(C)C)C(=O)N[C@@H](CCCNC(=N)N)C(=O)N[C@@H](Cc1c[nH]cn1)C(=O)N[C@@H](CO)C(=O)N[C@@H](CO)C(=O)N1CCC[C@H]1C(=O)N[C@@H](CC(N)=O)C(=O)N[C@@H](Cc1ccccc1)C(=O)NCC(=O)N[C@@H](C)C(=O)N1CCC[C@H]1C(=O)N[C@@H](CC(C)C)C(=O)N[C@@H](CO)C(=O)N[C@@H](CO)C(=O)N[C@H](C(=O)N[C@@H](CC(N)=O)C(=O)N[C@H](C(=O)NCC(=O)N[C@@H](CO)C(=O)N[C@@H](CC(N)=O)C(=O)N[C@H](C(=O)N[C@@H](Cc1ccc(O)cc1)C(N)=O)[C@@H](C)O)C(C)C)[C@@H](C)O, Synthetic analogue; also called compound 7) [N^α1-[(4S)-4-carboxy-4-(19-carboxynonadecanoylamino)butanoyl]-[Glu14,Arg17,Pro21,Pro26]-h-amylin]
19.1 | 17.1 | {C20 diacid-γGlu}-KCNTATCATQRLAEFLRHSSPNFGAIPSSTNVGSRTY-NH2 (disulfide 2-7; SMILES CC[C@H](C)[C@H](NC(=O)[C@H](C)NC(=O)CNC(=O)[C@H](Cc1ccccc1)NC(=O)[C@H](CC(N)=O)NC(=O)[C@@H]1CCCN1C(=O)[C@H](CO)NC(=O)[C@H](CO)NC(=O)[C@H](Cc1c[nH]cn1)NC(=O)[C@H](CCCNC(=N)N)NC(=O)[C@H](CC(C)C)NC(=O)[C@H](Cc1ccccc1)NC(=O)[C@H](CCC(=O)O)NC(=O)[C@H](C)NC(=O)[C@H](CC(C)C)NC(=O)[C@H](CCCNC(=N)N)NC(=O)[C@H](CCC(N)=O)NC(=O)[C@@H](NC(=O)[C@H](C)NC(=O)[C@@H]1CSSC[C@H](NC(=O)[C@H](CCCCN)NC(=O)CC[C@H](NC(=O)CCCCCCCCCCCCCCCCCCC(=O)O)C(=O)O)C(=O)N[C@@H](CC(N)=O)C(=O)N[C@@H]([C@@H](C)O)C(=O)N[C@@H](C)C(=O)N[C@@H]([C@@H](C)O)C(=O)N1)[C@@H](C)O)C(=O)N1CCC[C@H]1C(=O)N[C@@H](CO)C(=O)N[C@@H](CO)C(=O)N[C@H](C(=O)N[C@@H](CC(N)=O)C(=O)N[C@H](C(=O)NCC(=O)N[C@@H](CO)C(=O)N[C@@H](CCCNC(=N)N)C(=O)N[C@H](C(=O)N[C@@H](Cc1ccc(O)cc1)C(N)=O)[C@@H](C)O)C(C)C)[C@@H](C)O, Synthetic analogue; also called compound 16)
